Reference: article PMC5790014, “Type IX secretion system PorM and gliding machinery GldM form arches spanning the periplasmic space” (Nature Communications, 2018)

Legend:
[1] = target: T1, PorMp315 (PorM periplasmic fragment, domains D3 and D4 in the crystal) (Porphyromonas gingivalis, UniProt B2RLE8); assay: crystal structure; PorMp315/nb130, 1/1 complex at 10 mg/mL; 0.2 M ammonium citrate tribasic pH 7.0, 20% (w/v) PEG3350; 2.1 Å; conditions: both partners purified
T1 construct: PorM, Porphyromonas gingivalis, GI 188595218; cloned as residues 224-516, domain D2 was cleaved by a protease during crystallization, the structure spans residues 315-516; Construct cloned as 224-516 (pLIC03); the crystallised species is 315-516

[2] = target: the molecule itself; assay: crystal structure; PorMp224; 0.02 M sodium acetate pH 4.8-5.8, 0.2 M zinc acetate, 15-25% (w/v) PEG3350; 2.85 Å
[3] = target: the molecule itself; assay: crystal structure; GldMp; sitting-drop vapor diffusion at 293K; 0.1 M Hepes pH 7-8, 26-46% (w/v) PEG 600; 2 Å
[4] = target: T2, PorMpNt (N-terminal domain D1 of the PorM periplasmic domain) (Porphyromonas gingivalis (sequence …)); assay: crystal structure; PorMNt/nb01, 1/1 complex at 10 mg/mL; 0.1 M Hepes pH 7.5, 0.2 M NaCl, 25% (w/v) PEG3350; 2.4 Å; conditions: both partners purified
T2 construct: PorM, Porphyromonas gingivalis, GI 188595218, N-terminal domain D1; residues 30-212 by the results, residues 44-217 by the methods; the first helix (residues 30-69) is missing in the crystal, probably cleaved during crystallization; also called PorMNt

[5] = target: the molecule itself; assay: crystal structure; PorMp315/nb130, 1/1 complex at 10 mg/mL; 0.2 M ammonium citrate tribasic pH 7.0, 20% (w/v) PEG3350; 2.1 Å

B1: nanobody nb130 (VHH)
VHH: QVQLVESGGGLVQAGGSLRLSCAASGRTFSSYVMGWFRQAPGKEREFVTAISWSGGSIHYADSVKGRFTISRDNAKNTVYLQMNSLKPEDTAVYTCVAGFAGYGSFTSRSARDSDKYDYWGQGTKVTVSS
notes: llama nanobody raised against PorMp; source: E. coli WK6, periplasmic fraction, purified (Ni-NTA, Superdex 75)
B1: binds [1].

B2: PorMp224 (PorM periplasmic fragment, residues 224-516) (domain or fragment)
chain: RVNSITAQVIPQSQIVMSGDTYKANIVLSSVDTTQRPDVFVNGKLLSPENMGLFTATAGAPGTYPVKGYIEMMGNDGVKIRRDFESEYFVTEPMASVAPTMMNVLYAGIDNPINIAVPGVAQQNVSATINNGTLTRRGNLWIARPTKVGSEAIISVTAQSGGRTIQMAKTTLRVRALPDPLPYIEYKDVQGNTKRFKGGRLGKREILAAGGIKAALDDDLLEVNYTVVKFQLVFYDSMGNSIPEVSDGASFSERQKRQIQNLGKGKRFYVTEVIARGPDGIERKIPAIEVIVN
notes: PorM, Porphyromonas gingivalis, GI 188595218, tryptic fragment of the periplasmic domain, residues 224-516 (domains D2-D4); source: trypsin cleavage of PorMp (made in Rosetta E. coli cells), fragment purified
B2: binds [2].

B3: GldM periplasmic domain (GldMp) (domain or fragment, Flavobacterium johnsoniae, UniProt Q5EGM3 36-513, looked up)
chain: FGLMNEKFEAANTSSVTTNESLLTSLDQKAAEAKGEFAKAAETAHKVQAASKEFYDYIGTLKTQAVKGFEVDKETGKMPYEAMDRGDNIDDWFTGDGYTKKGNEIIAKIEKYKSDIKAALGTDKKYAGIISEVEKKFDVSDVKNKEGIKEKYLAYHFKGFPAIASAAKLSAWQNDVKKTEADVYNSALGKAAVAAASYSNYQAIVVLDKNAYFQGEKVTGKVVLGRYDENTKPTSFQGPGQIVNGQAVISLTAGGVGEQDINGQFTFLEDGKNIPLKFSGKYVVVPRPNSATISADKMNVVYRGVVNPISVSFAGVDANKIVASAPGLSSAGKPGKYNMSPGQGTEATISVTGTLPNGDKVTDKKTFRIKGIPGPTGTIRGEMGVVKGPKSNLEIATIGAKLLDFDFEVGLDVVGFNMKIAGQPTVVVTGNKMNAQCKSVLARAGKGDQVTISEIKTKLVGAGSYLLPRTAPVIYEIQ
notes: GldM, Flavobacterium johnsoniae (ATCC17061), GI 58531935, periplasmic domain, residues 36-513; Cloned into pLIC03 (a pET28a+ derivative); A SeMet derivative was used for phasing
In the case of B3, the “stoichiometry N” value [3] is reported as 2.

B4: nanobody nb01 (VHH)
VHH: DVQLVESGGGLVQAGGSLRVSCAASGRTFSSYSMGWFRQAPGKEREFVAAISRSDNSTYYADSVKGRFTISRDSAKNTVYLQMNSLKPEDTAVYYCAATPYGSRYYLRELREYDYWGQGTQVTVSS
notes: as for B1
B4: binds [4].

B5: PorMp315 (PorM periplasmic fragment, domains D3 and D4 in the crystal) (domain or fragment, Porphyromonas gingivalis, UniProt B2RLE8 315-516, looked up)
chain: EPMASVAPTMMNVLYAGIDNPINIAVPGVAQQNVSATINNGTLTRRGNLWIARPTKVGSEAIISVTAQSGGRTIQMAKTTLRVRALPDPLPYIEYKDVQGNTKRFKGGRLGKREILAAGGIKAALDDDLLEVNYTVVKFQLVFYDSMGNSIPEVSDGASFSERQKRQIQNLGKGKRFYVTEVIARGPDGIERKIPAIEVIVN
notes: PorM, Porphyromonas gingivalis, GI 188595218; cloned as residues 224-516, domain D2 was cleaved by a protease during crystallization, the structure spans residues 315-516; Construct cloned as 224-516 (pLIC03); the crystallised species is 315-516
B5: binds [5].
